How the values were obtained:
[1] = target: T1, soluble extracellular region of cynomolgus monkey CD38 antigen fused to a 6-His-tag (cynomolgus monkey, UniProt Q5VAN0 45-301); test: SPR
T1 construct: also called cynomolgus CD38

[2] = target: T2, human CD38 peptide-Fc fusion F1 (human, UniProt P0DOX5 223-449 = IgG part); test: SPR, antibody immobilized, peptide-Fc injected at 1000 nM
[3] = target: T3, human CD38 peptide-Fc fusion F2 (human, UniProt P0DOX5 223-449 = IgG part); test: as above
[4] = target: T4, human CD38 peptide-Fc fusion F3 (human, UniProt P0DOX5 223-449 = IgG part); test: as above
T4 construct: doubtful; also called F3 construct

[5] = target: T5, human CD38 peptide-Fc fusion F4 (human, UniProt P0DOX5 223-449 = IgG part); test: as above
T5 construct: doubtful

[6] = target: T6, human CD38 peptide-Fc fusion F5 (human, UniProt P0DOX5 223-449 = IgG part); test: as above
[7] = target: T7, human CD38 peptide-Fc fusion F6 (human, UniProt P0DOX5 195-449 = IgG part); test: as above
[8] = target: T8, human CD38 peptide-Fc fusion F7 (human, UniProt P0DOX5 223-449 = IgG part); test: as above
[9] = target: T9, human CD38 peptide-Fc fusion F8 (human, UniProt P0DOX5 223-449 = IgG part); test: as above
[10] = target: T10, human CD38 peptide-Fc fusion F9 (human, UniProt P0DOX5 223-449 = IgG part); test: as above
[11] = target: T11, human CD38 peptide-Fc fusion F10 (human, UniProt P0DOX5 223-449 = IgG part); test: as above
[12] = target: T12, human CD38 peptide-Fc fusion F11 (human, UniProt P0DOX5 223-449 = IgG part); test: as above
[13] = target: T13, human CD38 peptide-Fc fusion F12 (human, UniProt P0DOX5 223-449 = IgG part); test: as above
[14] = target: T14, human CD38 peptide-Fc fusion F13 (human, UniProt P0DOX5 223-449 = IgG part); test: as above
[15] = target: T15, human CD38 peptide-Fc fusion F14 (human, UniProt P0DOX5 223-449 = IgG part); test: as above
[16] = target: T16, human CD38 peptide-Fc fusion F15 (human, UniProt P0DOX5 223-449 = IgG part); test: as above
[17] = target: T17, human CD38 peptide-Fc fusion F16 (human, UniProt P0DOX5 223-449 = IgG part); test: as above
[18] = target: T18, human CD38 peptide-Fc fusion F17 (human, UniProt P0DOX5 223-449 = IgG part); test: as above
[19] = target: T19, human CD38 peptide-Fc fusion F18 (human, UniProt P0DOX5 223-449 = IgG part); test: as above
[20] = target: T20, human CD38 peptide-Fc fusion F19 (human, UniProt P0DOX5 223-449 = IgG part); test: as above
[21] = target: T21, human CD38 peptide-Fc fusion F20 (human, UniProt P0DOX5 223-449 = IgG part); test: as above
[22] = target: T22, soluble extracellular region of human CD38 fused to a 6-His-tag (human, UniProt P28907 43-300); test: SPR, equilibrium response, antibody captured on protein G
T22 construct: also called human CD38 extracellular domain with a poly-histidine tag; human CD38 antigen

[23] = target: T2, human CD38 peptide-Fc fusion F1; test: SPR, antibody immobilized, peptide-Fc injected at 15 nM and 200 nM
[24] = target: T3, human CD38 peptide-Fc fusion F2; test: as above
[25] = target: T4, human CD38 peptide-Fc fusion F3; test: as above
[26] = target: T5, human CD38 peptide-Fc fusion F4; test: as above
[27] = target: T6, human CD38 peptide-Fc fusion F5; test: as above
[28] = target: T8, human CD38 peptide-Fc fusion F7; test: as above
[29] = target: T9, human CD38 peptide-Fc fusion F8; test: as above
[30] = target: T10, human CD38 peptide-Fc fusion F9; test: as above
[31] = target: T11, human CD38 peptide-Fc fusion F10; test: as above
[32] = target: T12, human CD38 peptide-Fc fusion F11; test: as above
[33] = target: T13, human CD38 peptide-Fc fusion F12; test: as above
[34] = target: T14, human CD38 peptide-Fc fusion F13; test: as above
[35] = target: T15, human CD38 peptide-Fc fusion F14; test: as above
[36] = target: T16, human CD38 peptide-Fc fusion F15; test: as above
[37] = target: T17, human CD38 peptide-Fc fusion F16; test: as above
[38] = target: T18, human CD38 peptide-Fc fusion F17; test: as above
[39] = target: T19, human CD38 peptide-Fc fusion F18; test: as above
[40] = target: T20, human CD38 peptide-Fc fusion F19; test: as above
[41] = target: T21, human CD38 peptide-Fc fusion F20; test: as above
[42] = target: T4, human CD38 peptide-Fc fusion F3; test: SPR
[43] = target: T7, human CD38 peptide-Fc fusion F6; test: SPR

B1: human 767 antibody (antibody, V domains shown)
VH: QVQLVESGGGLVQPGGSLRLSCAASGFTFSSYWMSWVRQAPGKGLEWVANIKQDGSEKYYVDSVKGRFTISRDNAKNSLYLQMNSLRAEDTAVYYCAREGRTGYFDYWGQGTLVTVSS
VL: QSVLTQPPSASGTPGQRVTISCSGSTSNIGTNYVYWYQQLPGTAPKLLIYRNDQRPSGVPDRFSGSKSGTSASLAISGLRSEDEADYYCAAWDDSRSGVYAFGTGTKVTVLR
notes: Human IgG1
- Kd [1]: ~1200 nM
- binding result [2]: no binding (tested: 1000 nM)
- binding result [3]: no binding (tested: 1000 nM)
- binding result [4]: binds
- binding result [5]: no binding (tested: 1000 nM)
- binding result [6]: no binding (tested: 1000 nM)
- binding result [7]: no binding (tested: 1000 nM)
- binding result [8]: no binding (tested: 1000 nM)
- binding result [9]: no binding (tested: 1000 nM)
- binding result [10]: no binding (tested: 1000 nM)
- binding result [11]: no binding (tested: 1000 nM)
- binding result [12]: no binding (tested: 1000 nM)
- binding result [13]: no binding (tested: 1000 nM)
- binding result [14]: no binding (tested: 1000 nM)
- binding result [15]: no binding (tested: 1000 nM)
- binding result [16]: no binding (tested: 1000 nM)
- binding result [17]: no binding (tested: 1000 nM)
- binding result [18]: no binding (tested: 1000 nM)
- binding result [19]: no binding (tested: 1000 nM)
- binding result [20]: no binding (tested: 1000 nM)
- binding result [21]: no binding (tested: 1000 nM)
- Kd [22]: ~300 nM

B2: humanized 9G7 antibody (best-fit version) of Example 10 (antibody, human IgG1, kappa, V domains shown)
VH: QVTLKESGPTLVKPTQTLTLTCTFSGLSLSTSGKGVGWIRQPPGKALEWLAHIWWDDDKRYNPALKSRLTITKDTSKNQVVLTMTNMDPVDTATYYCARIELGRSYVMDYWGQGTLVTVSS
VL: DIQMTQSPSSLSASVGDRVTITCQASQDVITSVAWFQQKPGKAPKLLIYSASYRYTGVPSRFSGSGSGTDFTFTISSLQPEDIATYYCQQHYTIPLTFGQGTKLEIKR
notes: also called h9G7
- binding result [23]: no binding (tested: 200 nM)
- binding result [24]: no binding (tested: 200 nM)
- binding result [25]: no binding (tested: 200 nM)
- binding result [26]: no binding (tested: 200 nM)
- binding result [27]: no binding (tested: 200 nM)
- binding result [28]: no binding (tested: 200 nM)
- binding result [29]: no binding (tested: 200 nM)
- binding result [30]: no binding (tested: 200 nM)
- binding result [31]: no binding (tested: 200 nM)
- binding result [32]: no binding (tested: 200 nM)
- binding result [33]: no binding (tested: 200 nM)
- binding result [34]: no binding (tested: 200 nM)
- binding result [35]: no binding (tested: 200 nM)
- binding result [36]: no binding (tested: 200 nM)
- binding result [37]: no binding (tested: 200 nM)
- binding result [38]: no binding (tested: 200 nM)
- binding result [39]: no binding (tested: 200 nM)
- binding result [40]: no binding (tested: 200 nM)
- binding result [41]: no binding (tested: 200 nM)

B3: SAR650984 antibody (antibody, human IgG1, kappa, V domains shown)
VH: QVQLVQSGAEVAKPGTSVKLSCKASGYTFTDYWMQWVKQRPGQGLEWIGTIYPGDGDTGYAQKFQGKATLTADKSSKTVYMHLSSLASEDSAVYYCARGDYYGSNSLDYWGQGTSVTVSS
VL: DIVMTQSHLSMSTSLGDPVSITCKASQDVSTVVAWYQQKPGQSPRRLIYSASYRYIGVPDRFTGSGAGTDFTFTISSVQAEDLAVYYCQQHYSPPYTFGGGTKLEIKR
notes: also called humanized SAR650984 antibody
- binding result [42]: no binding
- binding result [43]: binds

From patent WO2016071355A1 (dated 2016)
